# Reference: US20200299380A1 (published 2020)
# T1: human ULBP-1-Fc (R&D systems) (human, UniProt Q9BZM6 26-216, limits assumed)
# T1 construct: Bought; not shown: Fc of the bought fusion protein
# T1 sequence (looked up): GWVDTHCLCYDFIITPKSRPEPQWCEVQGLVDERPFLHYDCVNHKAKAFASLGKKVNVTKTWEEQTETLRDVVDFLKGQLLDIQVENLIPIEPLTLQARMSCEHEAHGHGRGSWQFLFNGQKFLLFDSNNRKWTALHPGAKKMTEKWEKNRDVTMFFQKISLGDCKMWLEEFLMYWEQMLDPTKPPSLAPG
# T2: human ULBP-2-Fc (R&D systems) (human, UniProt Q9BZM5 26-217, limits assumed)
# T2 construct: Bought; not shown: Fc of the bought fusion protein
# T2 sequence (looked up): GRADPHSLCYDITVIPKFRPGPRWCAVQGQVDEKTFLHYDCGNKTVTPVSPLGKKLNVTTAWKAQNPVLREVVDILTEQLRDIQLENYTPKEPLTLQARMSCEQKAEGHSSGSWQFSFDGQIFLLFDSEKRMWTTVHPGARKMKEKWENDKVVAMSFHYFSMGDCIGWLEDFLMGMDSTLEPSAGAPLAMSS
# T3: MICA*001 expressed at the cell surface (human, UniProt Q29983 24-297)
# T3 construct: the protein on cells also has its transmembrane and cytoplasmic parts (Genbank AAB41060); also called C1R-MICA*001; C1R-MICA*01
# T3 sequence: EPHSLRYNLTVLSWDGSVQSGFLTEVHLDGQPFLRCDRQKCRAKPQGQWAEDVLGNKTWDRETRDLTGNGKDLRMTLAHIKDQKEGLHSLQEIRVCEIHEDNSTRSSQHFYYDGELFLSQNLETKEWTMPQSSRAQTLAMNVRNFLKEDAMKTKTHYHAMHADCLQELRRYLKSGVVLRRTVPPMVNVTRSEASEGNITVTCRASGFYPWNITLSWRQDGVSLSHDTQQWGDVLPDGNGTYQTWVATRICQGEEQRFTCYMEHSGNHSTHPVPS
# T4: MICA*004 expressed at the cell surface (human, UniProt Q29983 24-297)
# T4 construct: also called C1R-MICA*004; C1R-MICA*04
# T4 chain: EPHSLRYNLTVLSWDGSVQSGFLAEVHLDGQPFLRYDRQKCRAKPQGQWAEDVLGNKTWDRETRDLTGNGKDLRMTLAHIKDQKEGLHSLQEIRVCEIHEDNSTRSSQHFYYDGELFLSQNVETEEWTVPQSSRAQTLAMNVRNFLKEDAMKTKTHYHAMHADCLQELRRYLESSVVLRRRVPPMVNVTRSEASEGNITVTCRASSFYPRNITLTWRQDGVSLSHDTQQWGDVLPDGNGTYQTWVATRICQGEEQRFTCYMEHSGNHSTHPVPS
# T5: MICA*001-BirA (human, UniProt Q29983 24-297)
# T5 construct: also called MICA-BirA; MICA*01-BirA; not shown: BirA tag
# T5 sequence: T3 sequence
# B1: CHG1-M-MIA-20C6 (antibody, V domains shown)
# VH: QITLKESGPGILKPSQTLSLTCSFSGFSLSTSGMGVGWIRQPSGKGLEWLAHIWWDDDKYYNPSLKSQLTISKDTSRNQVFLRITSVDTADTATYYCARRTQGYFDYWGQGTTLTVSS
# VL: DIVMTQSPATLSVTPGDRVSLSCRASQSISDYLHWYQQKSHESPRLLIKYASQSISGIPSRFSGSGSGSDFTLSINSVEPEDVGVYYCQNGHSFPWTFGGGTKLEIKR
# notes: also called chimeric anti-MICA 20C6
# B2: CHG1-M-MIA-16A8 (antibody, V domains shown)
# VH: EVQLVESGGGLVKPGGSLKLSCAASGFTFSRYAMSWVRQTPEKRLEWVATIFSGGSYTYYPDSVKGRFTISRDNANNTLYLQMSSLKAEDTAMYFCARPNWERTFDYWGQGTTLTVSS
# VL: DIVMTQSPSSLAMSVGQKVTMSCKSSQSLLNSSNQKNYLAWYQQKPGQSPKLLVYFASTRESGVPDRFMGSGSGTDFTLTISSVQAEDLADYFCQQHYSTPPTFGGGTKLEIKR
# notes: also called CHG1-M-MIA2-16A8; chimeric anti-MICA 16A8
# B3: CHG1-M-MIA-6E4 (antibody, V domains shown)
# VH: EVQLVESGGALVKPGGSLKLSCAASGFTFSYYAMSWVRQTPEKRLEWVATISRGGNYIYYTDSVKGRFTISRDNAKNTLYLQMTSLRSEDTAMFYCASISDYDGAWLAYWGQGTTLTVSS
# VL: DVLMTQTPLSLPVSLGDQASISCRSSQSIIHTNGNTYLEWYLQKPGQSPKLLIYKISNRFSGVPDRFSGSGSGTDFTLKISRVEAEDLGVYYCFQGSHVPWTFGGGTKLEIKR
# notes: also called chimeric anti-MICA 6E4
# Target: T1, human ULBP-1-Fc (R&D systems)
# Test: SPR, antibody injected over immobilized ULBP-1-Fc
# Procedure: (§1) For cross-binding study, the human ULBP-1-Fc (R&D systems*), MICB-Fc (*), ULBP-2-Fc (*) and ULBP-3-Fc (*) recombinant proteins were covalently immobilized respectively on the flow cell one to four of a CM5 sensorchip. Anti-MICA antibodies (at a constant concentration of 10 μg/ml) were injected for 2 minutes at a flow rate of 10 μl/min onto the four flow cells in parallel. After each cycle, Sensorchip was regenerated by a five second injection of appropriate regeneration buffer.
row,binding result,Binder
1,no binding (tested: 10 µg/ml),B1
2,no binding (tested: 10 µg/ml),B2
3,no binding (tested: 10 µg/ml),B3

# Target: T2, human ULBP-2-Fc (R&D systems)
# Test: SPR, antibody injected over immobilized ULBP-2-Fc
# Procedure: as §1
row,binding result,Binder
1,no binding (tested: 10 µg/ml),B1
2,no binding (tested: 10 µg/ml),B2
3,no binding (tested: 10 µg/ml),B3

# Target: T3, MICA*001 expressed at the cell surface
# Test: flow cytometry on C1R transfectant cells, 4-parameter logistic fit
# Procedure: (§2) The binding of antibodies obtained from the first, second and third immunization series (including CHG1-M-MIA-19E9, CHG1-M-MIA-9C10, CHG1-M-MIA-6E4, CHG1-M-MIA-20C6, CHG1-M-MIA-16A8, CHG1-M-MIA-12A10, CHG1-M-MIA-10A7, CHG1-M-MIA-18E8, CHG1-M-MIA-10F3, CHG1-M-MIA-15F9 and CHG1-M-MIA-14B4) were tested for binding to MICA-expressing CR1 transfectant cells C1R-MICA*001, C1R-MICA*004, C1R-MICA*007 and C1R-MICA*008 (Pr. A. Steinle, Eberhard-Karls University Tuebingen, Germany) described in Salih et al. (2003) Blood 102(4): […]. Binding was analyzed by flow cytometry.
# (§3) Cells were harvested and stained in PBS 1×/BSA 0.2%/EDTA 2 mM buffer during 30 minutes at 4° C. using a dose-range of the anti-MICA mAbs. After two washes in staining buffer, cells were stained for 30 min at 4° C. with mouse anti-human IgG1-PE monoclonal antibodies (1/11). After two washes, stainings were acquired on a BD FACS Canto II and analyzed using the FlowJo software.
# (§4) Antibodies CHG1-M-MIA-19E9, CHG1-M-MIA-9C10, CHG1-M-MIA-6E4, CHG1-M-MIA-20C6, CHG1-M-MIA-12A10, CHG1-M-MIA-10A7, CHG1-M-MIA-18E8, CHG1-M-MIA-10F3, and CHG1-M-MIA-15F9 bound to each of the C1R-MICA*001, C1R-MICA*004, C1R-MICA*007 and C1R-MICA*008 cells (see FIG. 1A for antibodies CHG1-M-MIA-19E9, CHG1-M-MIA-9C10, CHG1-M-MIA-6E4, CHG1-M-MIA-20C6, CHG1-M-MIA-12A10, CHG1-M-MIA-10F3, and FIG. 1B for antibodies, CHG1-M-MIA-18E8, CHG1-M-MIA-15F9, CHG1-M-MIA-10A7). […] EC50 values are shown in Table C in μg/ml (calculated using a 4-parameter logistic fit).
row,EC50,Binder
1,0.26 mg/L,B1
2,1.07 mg/L,B2
3,1.96 mg/L,B3

# Target: T4, MICA*004 expressed at the cell surface
# Test: as above
# Procedure: as §2, §3, §4
row,EC50,Binder
1,0.05 mg/L,B1
2,0.44 mg/L,B2
3,2.67 mg/L,B3

# Target: T5, MICA*001-BirA
# Test: SPR single cycle kinetics, monovalent mean KD at pH 7.4, antibody captured on Protein-G chip, MICA-BirA injected
# Procedure: For monovalent affinity measurement, chimeric anti-MICA antibodies were captured onto a Protein-G chip.
# Affinities were determined using single cycle kinetics (SCK). SCK cycles were as follows: Successive 120s injections at 30 μl/min of 5 serial dilutions (0.01 to 100 nM) of MICA-His or MICA-BirA in ascending order (or of buffer for the blank injections to be subtracted during the analysis). After the last concentration is injected, complex is left to dissociate for 600s before regeneration by a 10s injection of appropriate regeneration buffer at 40 μl/min. After the regeneration, chip is left to stabilise for 60s in running buffer. Curves are fitted using Biacore T100 Evaluation software.
row,Kd,Binder
1,0.04 µM,B1
2,0.0115 µM,B2
3,0.0089 µM,B3
